Measurements reported in article PMC10516938, “Conformational dynamics of cohesin/Scc2 loading complex are regulated by Smc3 acetylation and ATP binding” (Nature Communications, 2023).

What was measured:
[1] = target: T1, Smc3^QQ R1008I K1004C (S. cerevisiae, UniProt P47037 1-1230, K112Q | K113Q | K1004C | R1008I); experiment: cross-linking; in vivo BMOE cross-link of cysteine pairs in yeast cells arrested in late G1 by non-degradable Sic1(9m); Scc1-PK immunoprecipitated, western blot, band intensities quantified; conditions: partners not purified
T1 construct: Smc3, S. cerevisiae; also called smc3-QQ K1004C with R1008I; source: S. cerevisiae W303, late G1 arrested cells, whole-cell extract
T1 sequence (looked up): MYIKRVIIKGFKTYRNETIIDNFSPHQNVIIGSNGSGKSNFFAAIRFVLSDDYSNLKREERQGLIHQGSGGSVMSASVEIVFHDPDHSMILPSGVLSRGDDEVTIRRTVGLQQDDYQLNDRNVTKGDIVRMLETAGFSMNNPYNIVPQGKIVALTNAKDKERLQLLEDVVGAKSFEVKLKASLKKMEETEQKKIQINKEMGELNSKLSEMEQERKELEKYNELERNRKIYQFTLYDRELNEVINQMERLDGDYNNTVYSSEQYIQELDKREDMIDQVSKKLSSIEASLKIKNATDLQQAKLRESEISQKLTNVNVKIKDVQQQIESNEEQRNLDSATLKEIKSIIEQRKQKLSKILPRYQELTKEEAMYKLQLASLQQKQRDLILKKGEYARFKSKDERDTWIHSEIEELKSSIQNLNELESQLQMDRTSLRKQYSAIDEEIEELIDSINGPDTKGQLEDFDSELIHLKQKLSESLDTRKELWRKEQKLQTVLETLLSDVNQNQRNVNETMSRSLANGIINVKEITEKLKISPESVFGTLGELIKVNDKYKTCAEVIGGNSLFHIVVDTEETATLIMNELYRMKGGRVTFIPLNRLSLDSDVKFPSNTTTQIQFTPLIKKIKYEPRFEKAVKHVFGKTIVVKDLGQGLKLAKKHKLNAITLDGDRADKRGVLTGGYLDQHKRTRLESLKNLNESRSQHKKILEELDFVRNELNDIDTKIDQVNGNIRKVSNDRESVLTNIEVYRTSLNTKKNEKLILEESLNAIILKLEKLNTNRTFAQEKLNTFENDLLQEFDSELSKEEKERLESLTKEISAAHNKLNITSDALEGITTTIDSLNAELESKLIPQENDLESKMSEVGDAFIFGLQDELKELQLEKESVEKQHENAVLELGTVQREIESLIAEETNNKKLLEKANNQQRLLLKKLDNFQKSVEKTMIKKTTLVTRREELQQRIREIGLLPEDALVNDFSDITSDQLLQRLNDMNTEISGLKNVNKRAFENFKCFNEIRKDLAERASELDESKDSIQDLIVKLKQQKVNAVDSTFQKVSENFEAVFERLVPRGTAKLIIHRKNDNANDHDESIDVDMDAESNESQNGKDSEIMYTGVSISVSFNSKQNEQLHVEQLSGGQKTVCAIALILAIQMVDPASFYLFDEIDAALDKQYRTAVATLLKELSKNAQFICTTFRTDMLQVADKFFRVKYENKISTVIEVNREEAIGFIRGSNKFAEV

[2] = target: T2, Smc3 K1004C E1155Q (S. cerevisiae, UniProt P47037 1-1230, K1004C | E1155Q); experiment: as above; conditions: partners not purified
T2 construct: Smc3, S. cerevisiae; also called EQ mutant version of Smc3^K1004C; source: S. cerevisiae W303, ectopically expressed, late G1 arrested cells, whole-cell extract
T2 sequence (looked up): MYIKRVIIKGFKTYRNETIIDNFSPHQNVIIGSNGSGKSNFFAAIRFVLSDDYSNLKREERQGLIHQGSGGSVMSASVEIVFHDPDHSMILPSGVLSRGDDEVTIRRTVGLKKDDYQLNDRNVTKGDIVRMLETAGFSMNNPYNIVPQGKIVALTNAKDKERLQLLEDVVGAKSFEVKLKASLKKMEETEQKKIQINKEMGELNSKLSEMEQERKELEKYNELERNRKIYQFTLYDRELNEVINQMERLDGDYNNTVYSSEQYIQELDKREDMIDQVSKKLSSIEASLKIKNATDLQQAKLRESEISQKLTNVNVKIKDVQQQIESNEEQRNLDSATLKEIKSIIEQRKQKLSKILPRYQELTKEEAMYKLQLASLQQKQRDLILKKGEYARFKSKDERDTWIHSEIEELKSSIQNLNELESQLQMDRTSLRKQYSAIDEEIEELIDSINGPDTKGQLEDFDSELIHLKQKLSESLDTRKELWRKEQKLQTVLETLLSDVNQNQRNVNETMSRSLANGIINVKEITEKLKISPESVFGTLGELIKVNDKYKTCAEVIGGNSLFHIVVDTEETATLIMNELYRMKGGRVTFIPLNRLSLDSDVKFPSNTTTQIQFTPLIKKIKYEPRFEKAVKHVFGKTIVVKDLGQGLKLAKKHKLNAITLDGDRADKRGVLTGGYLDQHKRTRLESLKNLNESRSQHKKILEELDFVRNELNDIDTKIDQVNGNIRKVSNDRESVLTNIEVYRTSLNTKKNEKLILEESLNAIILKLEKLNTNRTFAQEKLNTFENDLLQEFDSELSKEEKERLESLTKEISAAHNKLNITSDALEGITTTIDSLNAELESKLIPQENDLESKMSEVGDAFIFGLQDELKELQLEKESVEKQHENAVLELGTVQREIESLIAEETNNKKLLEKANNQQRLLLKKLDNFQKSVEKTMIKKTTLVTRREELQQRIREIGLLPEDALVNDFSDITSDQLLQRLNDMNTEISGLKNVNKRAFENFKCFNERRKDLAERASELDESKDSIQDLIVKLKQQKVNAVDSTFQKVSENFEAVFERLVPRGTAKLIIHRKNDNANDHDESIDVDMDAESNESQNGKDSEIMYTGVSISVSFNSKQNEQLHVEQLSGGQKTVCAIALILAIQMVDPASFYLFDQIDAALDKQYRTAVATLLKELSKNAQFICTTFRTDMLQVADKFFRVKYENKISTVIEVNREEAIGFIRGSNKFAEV

- crosslink relative to wild type [1]: ~70%
- fold change of the crosslink against wild-type Smc3 (K1004C) [2]: ~10 fold
B1: Scc2 D369C (natural protein, S. cerevisiae, UniProt Q04002 1-1493, looked up)
chain: MSYPGKDKNIPGRIIEALEDLPLSYLVPKDGLAALVNAPMRVSLPFDKTIFTSADDGRDVNINVLGTANSTTSSIKNEAEKERLVFKRPSNFTSSANSVDYVPTNFLEGLSPLAQSVLSTHKGLNDSINIEKKSEIVSRPEAKHKLESVTSNAGNLSFNDNSSNKKTKTSTGVTMTQANLAEQYLNDLKNILDIVGFDQNSAEIGNIEYWLQLPNKKFVLTTNCLTKLQMTIKNITDNPQLSNSIEITWLLRLLDVMVCNIKFSKSSLKMGLDDSMLRYIALLSTIVLFNIFLLGKNDSNLHRESYIMEPVNFLSDLIESLKILTIEYGSLKIEFDTFQEALELLPKYIRNGPFLDDNVTAKLVYIFSCLLMNNDIEATTNIQFQSFWDNVKRISSDILVSLFGSFDQQRGFIIEELLSHIEKLPTKRIQKKLRKVGNQNIYITDFTFTLMSMLENINCYSFCNQMKDIAPENIDLLKNEYKKQEEFLFNIVEHINDTILERFFKNPSALRYVIDNFVQDLLLLISSPQWPVTEKILSSLLKRLLSVYSPSMQVSANIETICLQLIGNIGSTIFDIKCSTRDHEDNNLIKMINYPETLPHFFKSFEECIAYNETIKCRRSATRFLWNLRLGTILILEEYTKDAKEQIITVDNELKKILEQIKDGGLGPELENREADFSTIKLDYFSILHAFELLNLYDPYLKLILSLLAKDKIKLRSTAIKCLSMLASKDKVILSNPMVKETIHRRLNDSSASVKDAILDLVSINSSYFEFYQQINNNYNDDSIMVRKHVLRINEKMYDETNDIVTKVYVIARILMKIEDEEDNIIDMARLILLNRWILKVHEVLDQPEKLKEISSSVLLVMSRVAIMNEKCSQLFDLFLNFYLLNKEAHSKEAYDKITHVLTILTDFLVQKIVELNSDDTNEKNSIVDKQNFLNLLAKFADSTVSFLTKDHITALYPYMVSDEKSDFHYYILQVFRCTFEKLANFKQKFLYDLETTLLSRLPKMNVREIDEAMPLIWSVATHRHDTARVAKACSSCLSHLHPYINKANNEEAAIVVDGKLQRLIYLSTGFARFCFPKPSNDKIAFLQEGETLYEHITKCLLVLSKDKITHVIRRVAVKNLTKLCGNHPKLFNSRHVLHLLDKEFQSDQLDIKLVILESLYDLFLLEERKSVRNTGVNSTLSSNSILKKKLLKTNRVEFANDGVCSALATRFLDNILQLCLLRDLKNSLVAIRLLKLILKFGYTNPSHSIPTVIALFASTSQYIRHVAYELLEDLFEKYETLVFSSLSRGVTKAIHYSIHTDEKYYYKHDHFLSLLEKLCGTGKKNGPKFFKVLKRIMQSYLDDITDLTSTNSSVQKSIFVLCTNISNITFVSQYDLVSLLKTIDLTTDRLKEVIMDEIGDNVSSLSVSEEKLSGIILIQLSLQDLGTYLLHLYGLRDDVLLLDIVEESELKNKQLPAKKPDISKFSAQLENIEQYSSNGKLLTYFRKHVKDT
notes: Scc2, S. cerevisiae; source: S. cerevisiae W303, in vivo, whole-cell extract
